Molecular target: HIV-1 envelope glycoprotein gp120 (UniProt P04578)

trypsin
saturability of trypsin-catalyzed gp120 cleavage with gp120 concentration: nonsaturable at concentrations up to 1 µM

— US7960364
